# Source: the DeepSol protein solubility set
# Experiment: soluble on expression in E. coli; label from the status in PepcDB or PDB records
row,Sequence,soluble on expression in E. coli
1,TAPSQVLKIRRPDDWHLHLRDGDMLKTVVPYTSEIYGRAIVMPNLAPPVTTVEAAVAYRQRILDAVPAGHDFTPLMTCYLTDSLDPNELERGFNEGVFTAAKLYPANAVTNSSHGVTSVDAIMPVLERMEKIGMPLLVHGEVTHADIDIFDREARFIESVMEPLRQRLTALKVVFEHITTKDAADYVRDGNERLAATITPQHLMFNRNHMLVGGVRPHLYCLPILKRNIHQQALRELVASGFNRVFLGTDSAPHARHRKESSCGCAGCFNAPTALGSYATVFEEMNALQHFEAFCSVNGPQFYGLPVNDTFIELVREEQQVAESIALTDDTLVPFLAGETVRWSVKQ,soluble
2,MSLQPPFSILFVDDDEMSRNHFARAMSADYKVYVAQSADEAITVLGKHASEIAVLVTDFRMPGRDGDELLREVAHEYPQIVRILVTAYADKDMLLQTVNTGDVFRIIEKPLRTDMVREVLHLATARYTERETRQQRLLAMDETLAFLAHELNTPLATISLFARSVENDVAEQYDPERQREIGLAAKSMLNNAQYCLTLISSFWATVHKSGGQKSASGGGTRAVRATRLIATLLDTYPFVASQRDWVKVDVEGDFVVHAMPNCVALVLSSLLSNALRALDGGSAPVLRLEVVAFPEPEIRIRDNGPGIAPEVKARLLQDPVTTYAGAGGHGMGMIFCNRIMQSFGGCLRIESTVGAGTTVTMGFPGFNSRMHSADEGHHHHHH,soluble
3,MGSDKIHHHHHHMADRIEFVKNYSDLSTNKGFQFEFYCDRCGSGYRTRFKPSITGTVTGVLDTAGSLLGGLFSSAADVSERVRSASWEKSHDDAFEDACNELKPDFIQCPRCSSWVCRQKCWNKKKGLCKECAPDLGVEMAAAQASKSVEEIWAHAAMAEEDKKLGLENWRENVRASCPECEAPLASNAKFCPECGAKLKAAQFCPSCGAKVNPGSKFCAECGEKF,not soluble
4,EKFVFEGKGDEVIGIEKPGDFVVVLDEVEHEKFVRKGDNLIIQHNIDLSEALCGFVRTISTLDGRTIFYRVLPGEVIAHADVKVIHNEGMPMRRASSDKGDLLVQFDVKFPDKINPDAAKKLADLL,not soluble
5,MSIKSDSRHLYLQVIDRIKRDIETGVYKEKQKLPSEFELAKQLGVSRATLREALRVLEEENIIIRRHGVGTFVNARPLFTSGIEQLSSVTDMIRQAGRKPGTIFLSSSIQQPTEDDMRRFQCRPDENLLLIERVRTADGEPVVYCLDKILCKYLPKGISYEHESLFENLHNQTHRDIAYAVARIVPLGYHEKVSPILQCDPETALLVLKQMHFDKNDEPIFYSVNYFRSDKFSFHVMRKRFSF,not soluble
6,MAHHHHHHMRPSSHRRPKSSAASDVGRRIRYSDAPPWDRSIRVNGDRALSAGRASRRGPEMMKAKLQGTPARPSHCNLVTTQAATLVATVPPVNEPQVELMSQLQDVVVRLSQSAVGEKQRLAHMQQRLDAYAALMREQDRMIDELRGMNIRLQKERDALILFRQQSLNHDLHLMNNLENDGGIDEEARRAYAKYEGQNNSYGTPCNGSLGAMTPRSRGFVRSLVAQLRDERRKRLEVEEQSSRMIGEQQLTIQRLEDRLRPQVVAPRSVLVARLESPHVSSHQRASNEEKDAVNTPLQCPCVDSVSAPMSSPNFSVVNQEKRLTEVNPMAPAVPPIPLPERNKEAVITEQVHQSPAVSMDQQITPPLEVPLKIHSTSYDDAAAILFDIRKRHGL,not soluble
7,MAHHHHHHMYTHTHTHTHTHTCTHMYLSSTLHRVFSPLVASPPQKEVGSKSNARGGKRVWRKGLASWEPQAGTHAHAHAQTDAEGYLQRTRRKPRPPAHASSLSPPLLLGRSRMGYTRERTNRHFFVSRANAFFSRLPISRIQRALAMEAIKKGSMKPWKHTKEQIIGSPITCNFEYNPRPVRLIGTVMDAHTEETSIKGGLKVYARSEEANMMLWIPAGNPKLKYEVTAAKGSFEHYLDERSKWDEAWLTGRARMK,soluble
8,MGSDKIHHHHHHMATLSTVPRIHYLRVQNFRALRNIELKNITPLTVLLGPNGSGKTTLFDVFNFLSECFQGGLRQAWDKRGRAKELKTRGADGPVVIEIKYRESKATPLITYHLSIDEGPKGPVVAEEWLAWTRGTQGRPWRFLDYRLGKGVVVGGELPDEKDERLDVPLRSAELLAVNTLGQIAQHPRVAALRDFITDWYVSYLSVDNTRTQPEAGPMEQLSKTGDNLPNVIQYLQETHPEQLQSITEVLRRRIPRLERIDATPMPDGRLLLEVKDAPFDKPVLSKFASDGTLKMLAYLTVLYDPEPPRFIGIEEPENFLHPRLLPELGEECRHASERTQLLVTTHSPFFLNSCRPDEVRILFRDEQGHTQVRTAADIEGIPEFVAAGASLGHLWIEGQFGMSDPLRNQGAPWTIEGARRGH,not soluble
9,MSLKTIHITHPHHLIKEEQAKSVMALGYFDGVHLGHQKVIGTAKQIAEEKGLTLAVMTFHPHPSHVLGRDKEPKDLITPLEDKINQIEQLGTEVLYVVKFNEVFASLSPKQFIDQYIIGLNVQHAVAGFDFTYGKYGKGTMKTMPDDLDGKAGCTMVEKLTEQDKKISSSYIRTALQNGDVELANVLLGQPYFIKGIVIHGDKRGRTIGFPTANVGLNNSYIVPPTGVYAVKAEVNGEVYNGVCNIGYKPTFYEKRPEQPSIEVNLFDFNQEVYGAAIKIEWYKRIRSERKFNGIKELTEQIEKDKQEAIRYFSNLRKEGGSHHHHHH,soluble
10,MGFLPISLLHLVIKLLKNSLRKSSRELKDNFYDEPYIVLSELRELKTYFSILSAIAAGKRKPSEMANEVDLEGRKIHSYIETLIRLGFVERDLLVARKEKRWLYIISDPMLMSWFSLVYPKRTEIEIGAMTIDDVKEILQRIFSFRFEQVSREFLIELNRKGNLPFRFTKIGRWWHKEEEIDIVALNEKEKKSLLIEIKWKELKEREIKGILNDLELEGWDKIYGVIAKKVQKKENLWERGFLIWDLEDLDVLAAALEHHHHHH,not soluble
11,MGSDKIHHHHHHMIDVTFDPTLANTLAQSLKLTAIALPLDLQIGDLTRLTDAKNSYWGLKARYTKSGGASAEFAAVTTSQQRLQQVLATGATLRVWTSVNPADQLGWGWLCSQLVQAQFMGVIQRIQIPLSGPVMTEMGPVFMQNSTIGELDEPALEHDLATAKVVTAADWVAFSYHWQACYEDNAALRLILGGRVVGVPQDFLDPLVRTCYRPEQSTAQTLGRILDNYPIGMPNWWWQYRIDQIAKASVR,not soluble
12,WKITDEQRQYYVNQFKTIQPDLNGFIPGSAAKEFFTKSKLPILELSHIWELSDFDKDGALTLDEFCAAFHLVVARKNGYDLPEKLPESLMPK,soluble
13,MPQDYISYIRSKVGHDKIILNFAGGILTNDDGKVLMQLRGDKKTWTIPGGTMELGESSLETCKREFLEETGIEVEAVRLLNVYTHFEEVYPNGDAVQTIVFIYELTAVSDMAIDNFHNEETLKLQFFSHEEIAELESVSAKHRLMLEEYFSDSFAMGH,not soluble
14,MSLFEQLDELAAQGKPAALLTIVRKDGSAPRDVGDKMIVTADEEYGTIGGGTVEHLAVQDARSVLSGADDPGIRTYELERGGNTGMVCGGEMDVFIDHVRGQAQLYIAGGGHISVELAPLAERLGYAVTVVDDREAYADPTQFPDETDVIHGEYGEALGDLPMGTETAVAVATRSGTFDQAAVAAALDGEAGYVGLVASETKANHVLDSLAESGYARRDLSRVQTPVGLDLGGSGPAAVALSVLAEVTMDRHDATGARATRLNLDDLVVVRGGGDLGSGVVYRLQQAGFPVIVTEVDQPTVVRRAVAFGAALYEDEVEVEGVTGRAAADIDEALELLADDVVPVLVDPEATVADDLDAAVLVDAIMAKGAFDTGTRREDADVVVGMGPGFEAGEDVDAVVETDRGHELGRVFYDGTASEYDGEPGERRGYTHERVLRAPTDGEWTPTVAIGDSVTAGDVVGTVGDRPVETEIDGLVRGLVHGGLSVSEGTKLGDVDPRGESVDPTKISDKALCLGGGVLEAVLRLRLEHHHHHH,not soluble
15,MKYMIGVDGGGTKTEAIAFDKDGNELVRATSGFGNILIDFEEALVHIMEAINQCQKSLINGHCVCVCLGLAGISGANTNELTLRLKKKYGTKIEIFNDAMIAHAAALKGKDGILTIGGTGAICIGKKGEVYQYSGGWGHILGDEGSGYWIALQALKKMAIQFDQGISLCPLSLNIQRQFQLLTPSHIKSLVYTSSKDKIAAIAPLVIQEARDGNDDAHEIMMQAGKELARITVNVYNKLNFKHSTPIAASGSILRLVPEIFAVFKKCCEESMKEITFVSQAEMAVKGTYYLMRDIYFLEHHHHHH,soluble
16,MNTIVVAQLQRQFQDYIVSLYQQGFLDNQFSELRKLQDEGTPDFVAEVVSLFFDDCSKLINTMSISLERPDNVDFKQVDSGVHQLKGSSSSLCFVLSVGARRVKNVCISFKECCDVQNREGYSSNSHTNCDNDIWHRCLRCLQQVDYEYKMLKTKLQDLFNVSFKLCENLLVLLLEKQILQAGGTIPQVDIN,soluble
17,MPLALAQLQDIGDRITDRLRPWSRSAEFWVRAADIYTSYKVAPPDPVPLLHWLVCQLRAGFVKDEEEREAMWEQQHELGAQKMYSLCSELGGLFLKEAAQILGKPDLAPMAWVKRLVTLCDNAPATPIDVVRDVVEKQFGKSFDDIFECFDVEPVGSASIAQVHRARLKLSKTDVAVKVQHPGAEKLMMVDIRNMQAFALFLQKYDINFDLYSATKEMEKQICYEFDFVREAKAMERIREFLRVTNKKKPPVIVPRVIPEMVSREVLVMEFIEGTPIMNLGNEMAKRGIDPGGKIATMAKQKILTDLTLAYGQMILKDGFFHADPHPGNILICKNTEARLLFLFLFLAMVALLDYGQVKAMPEDLRLAYANLVIAMADDDFLRTKESFREIGIETWSIADNELEELFQLSLRMFDTRLPPGVTAMSPFAEDSSLNKVGVQNCLLNGVSILFFYLKSFPEELFSVLRTIQLLRGLTVGMGLRFSCAQQWKPIAEEALLKSGRLKDY,soluble
18,ALMITDECINCDVCEPECPNGAISQGDETYVIEPSLCTECVGHYETSQCVEVCPVDAIIKDPSHEETEDELRAKYERITGEG,soluble
19,KDWRDKDQSDGFGKVYVTEKVAQIKQIPFDASKLHSSPQMAAQHNMVDDGSGKVEIWRVENNGRIQVDQNSYGEFYGGDCYIILYTYPRGQIIYTWQGANATRDELTTSAFLTVQLDRSLGGQAVQIRVSQGKEPVHLLSLFKDKPLIIYKNGTSKKGGQAPAPPTRLFQVRRNLASITRIVEVDVDANSLNSNDVFVLKLPQNSGYIWVGKGASQEEEKGAEYVASVLKCKTLRIQEGEEPEEFWNSLGGKKDYQTSPLLETQAEDHPPRLYGCSNKTGRFVIEEIPGEFTQDDLAEDDVMLLDAWEQIFIWIGKDANEVEKKESLKSAKMYLETDPSGRDKRTPIVIIKQGHEPPTFTGWFLGWDSSKW,soluble
20,MMIRGIRGATTVERDTEEEILQKTKQLLEKIIEENHTKPEDVVQMLLSATPDLHAVFPAKAVRELSGWQYVPVTCMQEMDVTGGLKKCIRVMMTVQTDVPQDQIRHVYLEKAVVLRPDLSLTKNTEL,soluble
21,MNDGYKQNDIVNHEAYEELEVAEEQIIYCQEEYNDGPGTMVQVQEQTDVPCYVMEGTYFTPENIYAANQDHSVCHFCKEDLTNKRFYNHLFDHHGFTKQQCEMMKQQKRLGRPNPKRKSLHSCENCGMEFITKTGLTSHLKKDNSPCARVDEMAVGGSSVSNIVCPSYGCDKNVPTYLDLAIHVDTEHRDLSRATDSFRIRRVTFQDKAGFMKWKKQMEKSTNSEFFLRTSQKVSFAIRTMLYKCLFSNSRGQSKGRRCEQCPAFIKCCMRNHGQYEVVACFGHLGHEHPTETEIARQMRIEKYREIDALQVRESRMHNQHHMNVRPKQIIVDQYGHPTHPNDEMMILMPVGEEVVEEDAFTSVVVDDADDEIVGPRAQQETPALTRQVYIPTSNHHASSSHY,not soluble
